Results reported in US20240084009A1 (HARPOON THERAPEUTICS, published 2024).
Residue numbers refer to the chain shown, from its start.

Experiments:
[1] = biological target: T1, cyno CD3e (Macaca fascicularis (cynomolgus monkey), UniProt Q95LI5); assay: kinetic Kd determination of the expressed scFv, method not named
T1 construct: not described; also called cynomolgus CD3ε; cynomolgus CD3
T1 sequence (CD3 epsilon, looked up): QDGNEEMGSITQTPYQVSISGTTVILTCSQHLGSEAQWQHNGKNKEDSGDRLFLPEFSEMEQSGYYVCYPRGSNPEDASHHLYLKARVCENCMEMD

[2] = biological target: T2, biotinylated hu-CD3ε (human, UniProt P07766 23-126, limits assumed, biotinylated (site not stated)); assay: as above
T2 construct: The construct is not described; also called biotin-CD3ε; human CD3ε
T2 sequence (P07766 23-126 limits assumed): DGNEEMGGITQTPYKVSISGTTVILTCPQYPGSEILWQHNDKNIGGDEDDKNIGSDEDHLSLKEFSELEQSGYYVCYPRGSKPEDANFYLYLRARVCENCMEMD

B1: Anti-CD3, clone 2G5 (scFv)
scFv: EVQLVESGGGLVQPGGSLKLSCAASGFTFNKYALNWVRQAPGKGLEWVARIRSKYNNYATEYADSVKDRFTISRDDSKNTAYLQMNNLKTEDTAVYYCVRHGNFGNSPISYWAYWGQGTLVTVSSGGGGSGGGGSGGGGSQTVVTQEPSLTVSPGGTVTLTCGSSTGAVTSGNYPNWVQQKPGQAPRGLIGGTNFLAPGTPERFSGSLLGGKAALTLSGVQPEDEAEYYCVLWYSNRWAFGGGTKLTVLHHHHHH
notes: Expressed in Expi293 from the pcDNA3.4 His6 vector
- Kd [1]: 115 nM
- koff [1]: 0.111 s⁻¹
- kon [1]: 964000 M⁻¹ s⁻¹
- Kd [2]: 117 nM
- koff [2]: 0.115 s⁻¹
- kon [2]: 994000 M⁻¹ s⁻¹

B2: Anti-CD3, clone 3F2 (scFv)
scFv: B1 scFv with F29Y, L34M, E61Y, S65E, T166K, N194K, F195E, E202A, V231T, A239V
notes: as for B1
- Kd [1]: 6.6 nM
- koff [1]: 0.00438 s⁻¹
- kon [1]: 712000 M⁻¹ s⁻¹
- Kd [2]: 8 nM
- koff [2]: 0.00502 s⁻¹
- kon [2]: 704000 M⁻¹ s⁻¹

B3: Anti-CD3, clone 6A2 (scFv)
scFv: EVQLVESGGGLVQPGGSLKLSCAASGFMFNKYAMNWVRQAPGKGLEWVARIRSKSNNYATYYADSVKDRFTISRDDSKNTAYLQMNNLKTEDTAVYYCVRHGNFGNSYISYWATWGQGTLVTVSSGGGGSGGGGSGGGGSQTVVTQEPSLTVSPGGTVTLTCGSSFGAVTSGNYPNWVQQKPGQAPRGLIGGTKLLAPGTPARFSGSLLGGKAALTLSGVQPEDEAEYYCVLWYSNSWVFGGGTKLTVLHHHHHH
notes: as for B1
- Kd [1]: 4.9 nM
- koff [1]: 0.00222 s⁻¹
- kon [1]: 456000 M⁻¹ s⁻¹
- Kd [2]: 4.7 nM
- koff [2]: 0.00248 s⁻¹
- kon [2]: 522000 M⁻¹ s⁻¹

B4: Anti-CD3, clone 10E4 (scFv)
scFv: EVQLVESGGGLVQPGGSLKLSCAASGFTFNKYPMNWVRQAPGKGLEWVARIRSKYNNYATYYADSVKDRFTISRDDSKNTAYLQMNNLKNEDTAVYYCVRHGNFNNSYISYWAYWGQGTLVTVSSGGGGSGGGGSGGGGSQTVVTQEPSLTVSPGGTVTLTCGSSTGAVTKGNYPNWVQQKPGQAPRGLIGGTKMLAPGTPARFSGSLLGGKAALTLSGVQPEDEAEYYCALWYSNRWVFGGGTKLTVLHHHHHH
notes: as for B1
- Kd [1]: 46.8 nM
- koff [1]: 0.0238 s⁻¹
- kon [1]: 508000 M⁻¹ s⁻¹
- Kd [2]: 49.8 nM
- koff [2]: 0.026 s⁻¹
- kon [2]: 522000 M⁻¹ s⁻¹
